Laboratory results published in article PMC4496674, “Tackling Critical Catalytic Residues in Helicobacter pylori L-Asparaginase” (Biomolecules, 2015).

Experiments:
purified protein [1] = substrate: NC(=O)CC[C@H](N)C(=O)O; assay: purified protein; conditions: 50 mM HEPES pH 7.5, 37 °C, sigmoidal, cooperative
purified protein [2] = substrate: NC(=O)C[C@H](N)C(=O)O; assay: purified protein; conditions: 50 mM HEPES pH 7.5, 37 °C, hyperbolic

B1: HpASNase (Helicobacter pylori 26695) (protein)
chain: MAQNLPTIALLATGGTIAGSGASASLGSYKSGELGIKELLKAIPSLNRLARIQGEQISNIGSQDMNEEVWFKLAKRAQELLDDSRIQGVVITHGTDTLEESAYFLNLVLRSTKPVVLVGAMRNAASLSADGALNLYNAVSVALNEKSANKGVLVVMDDNIFSAREVIKTHTTHTSTFKALNSGAIGSVYYGKTRYYMQPLRKHTTESEFSLSQLKTPLPKVDIIYTHAGMTPDLFQASLNSHAKGVVIAGVGNGNVSAGFLKAMQEASQMGVVIVRSSRVNSGEITSGEIDDKAFITSDNLNPQKARVLLQLALTKTNNKEKIQEMFEEY
Question: For B1, which K0.5 (purified protein [1]) is on record?
Answer: 46.4 ± 4.02 mM

Question: What about the kcat (purified protein [1]) of the same protein?
Answer: 22.1 ± 1.39 s⁻¹

Question: And the kcat/Km (purified protein [1])?
Answer: 470 ± 100 M⁻¹ s⁻¹

Question: What about the K0.5 (purified protein [2]) of the same protein?
Answer: 0.29 ± 0.03 mM

Question: And the kcat (purified protein [2])?
Answer: 19.3 ± 0.56 s⁻¹

Question: What about the kcat/Km (purified protein [2]) of the same protein?
Answer: 66400 M⁻¹ s⁻¹
